Laboratory results published in the supplement of paper PMC10126150.
± gives the standard deviation of the averaged measurements.

tested on: ATP; test: switch fluorescence ratio, 500 uM ATP over buffer (Cy3 cluster intensity, sum of 5 cycles each) (fold (ratio)); higher = stronger signal-on switching upon ATP binding; sequences stand for … in TCGTCGGCAGCGTCAGATGTGTATAAGAGACAGTTTTTTTTTTTTTTTTTTTTTTTTT…TC; details: aptamer strand: ATP DNA aptamer (quencher-CACCTGGGGGAGTATTGCGGAGGAAGG + anchor), 100 nM annealed; ATP concentration: 500 uM
Method in brief: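 Switching-strand clusters labelled with Cy3 on a modified Illumina MiSeq flow-cell were annealed to 100 nM quencher-labelled ATP aptamer, imaged in selection buffer, and re-imaged after 15 min with 500 uM ATP at 22 °C. This was done over five cycles with NaOH stripping and re-annealing in between. The fluorescence ratio is summed target-cycle over summed buffer-cycle Cy3 intensity per cluster, averaged per switch-domain sequence, excluding clusters outside 100-1000 RFU.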
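Also: ATP exposure 15 min at 22 °C before imaging.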

| Sequence | switch fluorescence ratio |
| --- | --- |
| TAGGGTTTGT | 0.989 ± 0.031 |
| TAGGTACCAG | 0.984 ± 0.025 |
| TAGGTAGCTT | 1.02 ± 0.021 |
| TAGGTAGGGA | 0.993 ± 0.018 |
| TAGGTATGTG | 1.03 ± 0.049 |
| TAGGTCAGAA | 0.989 ± 0.025 |
| TAGGTCATTG | 0.995 ± 0.025 |
| TAGGTCGGTG | 0.993 ± 0.011 |
| TAGGTCTAGG | 1 ± 0.023 |
| TAGGTGCGGT | 0.989 ± 0.015 |
| TAGGTGCTTT | 1.079 ± 0.0059 |
| TAGGTGGCGG | 0.9906 ± 0.0071 |
| TAGGTGGTTT | 0.989 ± 0.026 |
| TAGGTGTAGG | 1.01 ± 0.028 |
| TAGGTGTGTG | 0.984 ± 0.024 |
| TAGGTTAAAA | 0.9786 ± 0.0041 |
| TAGGTTAAGG | 1 ± 0.034 |
| TAGGTTACCC | 1.04 ± 0.046 |
| TAGGTTATTA | 0.9988 ± 0.0097 |
| TAGGTTGCTT | 1.02 ± 0.021 |
| TAGGTTGGGT | 0.992 ± 0.0089 |
| TAGTAAAAAC | 0.9938 ± 0.0061 |
| TAGTAACATA | 1.006 ± 0.0036 |
| TAGTAATATT | 1.11 ± 0.12 |
| TAGTAATGTT | 0.982 ± 0.025 |

| Sequence | switch fluorescence ratio |
| --- | --- |
| TAGTAGACTG | 1.01 ± 0.05 |
| TAGTAGAGT | 0.9637 ± 0.0076 |
| TAGTAGATTC | 1.005 ± 0.0054 |
| TAGTAGCTGT | 1.04 ± 0.089 |
| TAGTAGGGTT | 0.986 ± 0.021 |
| TAGTAGGTAC | 1.04 ± 0.025 |
| TAGTAGTCGG | 0.963 ± 0.036 |
| TAGTAGTTAT | 0.9858 ± 0.0052 |
| TAGTATTCTG | 0.986 ± 0.021 |
| TAGTATTTGC | 1.14 ± 0.13 |
| TAGTCAGTCG | 1.08 ± 0.11 |
| TAGTCATTTG | 0.962 ± 0.0097 |
| TAGTCCGTAA | 2.06 ± 0.035 |
| TAGTCGGGTT | 0.9613 ± 0.0059 |
| TAGTCGTTTC | 1.02 ± 0.035 |
| TAGTCTGGT | 0.999 ± 0.016 |
| TAGTCTTTTT | 1.03 ± 0.027 |
| TAGTGACACG | 1.03 ± 0.045 |
| TAGTGAGGGA | 0.992 ± 0.013 |
| TAGTGCCGGT | 0.993 ± 0.016 |
| TAGTGCGTCG | 0.942 ± 0.063 |
| TAGTGCTTGG | 0.9827 ± 0.0087 |
| TAGTGGGTTT | 1.01 ± 0.021 |
| TAGTGGTTAG | 0.991 ± 0.025 |
| TAGTGTAGGT | 1.03 ± 0.02 |

| Sequence | switch fluorescence ratio |
| --- | --- |
| TAGTGTATTA | 1.01 ± 0.018 |
| TAGTGTCGGA | 0.9914 ± 0.0035 |
| TAGTTAATAT | 1 ± 0.019 |
| TAGTTAGTTT | 1.02 ± 0.029 |
| TAGTTCATGG | 0.991 ± 0.019 |
| TAGTTCGCTT | 1.003 ± 0.0067 |
| TAGTTGAATT | 0.998 ± 0.014 |
| TAGTTGACCG | 1.12 ± 0.11 |
| TAGTTGACTG | 1.04 ± 0.072 |
| TAGTTGATTC | 1.01 ± 0.067 |
| TAGTTGCGGC | 1.01 ± 0.041 |
| TAGTTGGGGG | 1 ± 0.028 |
| TAGTTGGTAC | 0.9925 ± 0.0083 |
| TAGTTGGTCG | 1.02 ± 0.049 |
| TAGTTGGTTG | 0.974 ± 0.027 |
| TAGTTGTTGC | 0.977 ± 0.021 |
| TAGTTTATTT | 1 ± 0.015 |
| TAGTTTCCCA | 0.971 ± 0.024 |
| TAGTTTCGAT | 0.977 ± 0.019 |
| TAGTTTGATG | 0.986 ± 0.017 |
| TAGTTTTATG | 0.959 ± 0.015 |
| TAGTTTTTTA | 1.02 ± 0.015 |
| TAGTTTTTTT | 0.986 ± 0.022 |
| TATAAAAAAA | 1.02 ± 0.051 |
| TATAAAACCC | 1.1 ± 0.045 |

| Sequence | switch fluorescence ratio |
| --- | --- |
| TATAAAAGGA | 1 ± 0.019 |
| TATAAAGGG | 0.956 ± 0.022 |
| TATAAAGGTG | 1.11 ± 0.14 |
| TATAACACTT | 1.05 ± 0.024 |
| TATAACGGAG | 1.01 ± 0.014 |
| TATAACGTTA | 0.993 ± 0.015 |
| TATAAGAGAA | 0.972 ± 0.031 |
| TATAAGATTA | 1.015 ± 0.0027 |
| TATAAGCTAG | 1.03 ± 0.017 |
| TATAAGGAGG | 0.9935 ± 0.0033 |
| TATAATACGG | 1.02 ± 0.02 |
| TATAATAGAA | 0.983 ± 0.027 |
| TATAATCCAG | 0.984 ± 0.024 |
| TATAATCGTG | 0.988 ± 0.021 |
| TATAATTGCG | 0.977 ± 0.036 |
| TATAATTTCG | 1.003 ± 0.0024 |
| TATACAAATT | 0.989 ± 0.043 |
| TATACAGCGA | 1.0822 ± 0.00025 |
| TATACATTCA | 1.07 ± 0.019 |
| TATACATTGG | 0.98862 ± 5.5e-05 |
| TATACCGGTA | 1.022 ± 0.0067 |
| TATACGAAAT | 1.49 ± 0.58 |
| TATACGATCT | 0.999 ± 0.03 |
| TATACGGCAC | 2.04 ± 0.14 |
| TATACGGCAT | 1.119 ± 0.0049 |
